Experimental data taken from US20040137516A1 (PHAGETECH, published 2004).
Where no end group is shown, it is not given here.

B1: Gal4 DNA binding domain-Lamin C control fusion (pGBKT7LaminC) (other)
chain: MKLLSSIEQACDICRLKKLKCSKEKPKCAKCLKNNWECRYSPKTKRSPLTRAHLTEVESRLERLEQLFLLIFPREDLDMILKMDSLQDIKALLTGLFVQDNVNKDAVTDRLASVETDMPLTLRQHRISATSSSEESSNKGQRQLTVSSEEVVSREVSGIKAAYEAELGDARKTLDSVAKERARLQLELSKVREEFKELKARNTKKEGDLIAAQARLKDLEALLNSKEAALSTALSEKRTLEGELHDLRGQVAKLEAALGEAKKQLQDEMLRRVDAENRLQTMKEELDFQKNIYSEELRETKRRHETRLVEID
notes: also called pGBKLaminC
B2: Gal4 activation domain-Twort ORF 168 fusion (pGADT7 construct) (other)
chain: MLFFKEKFYNELSYYRGGHKDLESMFELALEYIEKLEEEDEQQVTDYENAMEEELRDAVDVIESQLEIIKDIVR
notes: Second orientation of the two-hybrid test; also called Twort ORF 168 polypeptide; not shown: limits and vector-encoded tags not st
B3: GST/44AHJD ORF 25 fusion protein (other)
chain: MERKYKTVLLYCDEIKGHFPHQISMFEDLYDAKVVYSYYEYNLFTKKYAYIIEYIKEI
modifications: also: fusion protein with GST moiety, not in chain
notes: also called GST/ORF 25; GST/ORF25; not shown: glutathione-S-transferase (GST) moiety encoded by expression vector pGEX 4T-1 (Pharmacia)
B4: purified bacteriophage 44AHJD ORF 25 protein (other)
chain: B3 chain
notes: Purified recombinant polypeptide injected as analyte in SPR; also called 44ADJH ORF 25
B5: GST/G1 ORF 240 fusion protein (other)
chain: MVIPSIKAQNKFKNELEYYKQGHISESKMLELAFDYIQELEQNNEYVTNLLEEERYGE
modifications: also: fusion protein with GST moiety, not in chain
notes: also called GST ORF240; not shown: glutathione-S-transferase (GST) moiety encoded by expression vector pGEX 4T-1

Tests used:
[1] = molecular target: T1, Gal4 activation domain-STAAU_R2 fusion (pGADSTAAU_R2) (yeast; Staphylococcus aureus, UniProt P0A022 1-377); assay: yeast two-hybrid, growth on THAL minus medium
T1 construct: Expressed in yeast AH109 for two-hybrid analysis; not shown: limits and vector-encoded tags not st
T1 sequence: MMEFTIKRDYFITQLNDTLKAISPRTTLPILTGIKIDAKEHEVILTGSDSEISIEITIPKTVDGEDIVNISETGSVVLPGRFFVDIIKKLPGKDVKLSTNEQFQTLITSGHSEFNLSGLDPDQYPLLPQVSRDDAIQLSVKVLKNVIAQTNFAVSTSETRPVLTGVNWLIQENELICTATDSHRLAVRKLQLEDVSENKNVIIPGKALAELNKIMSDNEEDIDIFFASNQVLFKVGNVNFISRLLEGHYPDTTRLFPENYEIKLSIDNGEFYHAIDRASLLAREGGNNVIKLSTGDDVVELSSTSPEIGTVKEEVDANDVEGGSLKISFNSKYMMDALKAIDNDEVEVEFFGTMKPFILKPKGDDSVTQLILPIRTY

[2] = molecular target: B1; assay: yeast two-hybrid, growth on THAL minus medium
[3] = molecular target: T2, S. aureus STAAU_R2 (DNA-directed DNA polymerase III beta subunit, DnaN), native protein in S. aureus extract (Staphylococcus aureus, UniProt P0A022 1-377); assay: affinity chromatography of S. aureus extract on GST/ORF25-Affigel 10; 1% SDS eluate, SDS-PAGE silver stain, MALDI-ToF identification
T2 construct: also called PT48; PT 48
T2 sequence: T1 sequence

[4] = molecular target: T3, Glutathione-S-transferase (GST)-tagged STAAU_R2 (Staphylococcus aureus, UniProt P0A022 1-377); assay: SPR (Biacore 2000); GST-tagged STAAU_R2 captured by anti-GST antibody on CM5 chip, ORF 25 as analyte
T3 construct: Purified recombinant polypeptide captured by an anti-GST antibody on a CM5 chip; not shown: glutathione-S-transferase (GST) tag
T3 sequence: T1 sequence

[5] = molecular target: T2, S. aureus STAAU_R2 (DNA-directed DNA …); assay: affinity chromatography of S. aureus extract on GST ORF240-Affigel 10; SDS-PAGE silver stain

B1
binding result [1]: no binding

B2
binding result [2]: no binding

B3
binding result [3]: binds

B4
binding result [4]: binds

B5
binding result [5]: binds
